In article PMC9723635:

Tests used:
RBPMS-A T/E [1] = assay: UV crosslinking; details: 4 uM protein, with 20% HeLa nuclear extract, EMSA: 50 mM HEPES pH 7.2-7.9, 15 mM MgCl2, 25% glycerol, 5 mM DTT, 45 mM KCl, 5 ug tRNA, 20 fmol RNA, 25 min at 30 C, then 5 ug heparin 5 min at 30 C
RBPMS-A T/A = assay: EMSA; details: apparent Kd, Hill fit; tRNA and heparin present; EMSA: 50 mM HEPES pH 7.2-7.9, 15 mM MgCl2, 25% glycerol, 5 mM DTT, 45 mM KCl, 5 ug tRNA, 20 fmol RNA, 25 min at 30 C, then 5 ug heparin 5 min at 30 C; 4% …
RBPMS-A T/E [2] = assay: EMSA; details: apparent Kd, Hill fit; tRNA and heparin present; EMSA: 50 mM HEPES pH 7.2-7.9, 15 mM MgCl2, 25% glycerol, 5 mM DTT, 45 mM KCl, 5 ug tRNA, 20 fmol RNA, 25 min at 30 C, then 5 ug heparin 5 min at 30 C; 4% …

Substance	binding signal (RBPMS-A T/E [1])	Kd (RBPMS-A T/A) [nM]	Kd (RBPMS-A T/E [2]) [nM]
Tpm1 UV-crosslinking RNA	7.8 % of WT	–	–
Tpm1 exon 3 upstream intron EMSA RNA (three tandem CAC motifs)	–	268	756
